# According to publication PMC10238197, “Deafness‐Associated ADGRV1 Mutation Impairs USH2A Stability through Improper Phosphorylation of WHRN and WDSUB1 Recruitment” (Advanced Science, 2023):
# T1: WHRN-PDZ2 domain, purified (mouse)
# T1 sequence (Q80VW5 whole entry, looked up): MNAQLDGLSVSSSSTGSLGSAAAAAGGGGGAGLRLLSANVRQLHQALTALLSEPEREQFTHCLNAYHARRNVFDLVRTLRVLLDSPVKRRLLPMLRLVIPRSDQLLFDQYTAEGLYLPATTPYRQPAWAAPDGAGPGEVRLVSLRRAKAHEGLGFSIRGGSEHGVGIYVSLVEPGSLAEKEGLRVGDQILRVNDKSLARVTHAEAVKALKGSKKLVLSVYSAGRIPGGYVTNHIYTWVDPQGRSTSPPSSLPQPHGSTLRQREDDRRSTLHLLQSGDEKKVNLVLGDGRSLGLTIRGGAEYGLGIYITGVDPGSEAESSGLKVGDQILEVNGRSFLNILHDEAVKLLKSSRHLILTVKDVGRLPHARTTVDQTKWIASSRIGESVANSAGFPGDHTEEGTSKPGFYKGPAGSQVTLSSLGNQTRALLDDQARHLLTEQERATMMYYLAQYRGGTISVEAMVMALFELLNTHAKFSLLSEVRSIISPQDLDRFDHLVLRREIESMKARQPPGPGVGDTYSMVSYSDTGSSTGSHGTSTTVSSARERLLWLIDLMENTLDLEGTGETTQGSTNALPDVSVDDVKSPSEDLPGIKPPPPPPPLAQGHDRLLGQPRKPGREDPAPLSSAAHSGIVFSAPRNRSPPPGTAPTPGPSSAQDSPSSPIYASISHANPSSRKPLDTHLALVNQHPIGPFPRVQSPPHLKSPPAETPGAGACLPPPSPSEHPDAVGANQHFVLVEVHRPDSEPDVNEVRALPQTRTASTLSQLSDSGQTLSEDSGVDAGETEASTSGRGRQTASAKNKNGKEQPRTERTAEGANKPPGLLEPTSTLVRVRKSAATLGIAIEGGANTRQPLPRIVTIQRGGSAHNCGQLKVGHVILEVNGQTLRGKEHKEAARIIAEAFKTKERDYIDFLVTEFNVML
# T2: WHRN-PDZ1 domain, purified (mouse, UniProt Q80VW5 137-225)
# T2 construct: first PDZ domain of whirlin (WHRN), mouse; 13C,15N- or 15N-labelled for NMR; Residues up to A222 were assigned; source: purified protein
# T2 sequence: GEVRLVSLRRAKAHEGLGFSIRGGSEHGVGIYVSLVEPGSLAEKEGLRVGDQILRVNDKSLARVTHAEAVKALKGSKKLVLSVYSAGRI
# Key:
# [1] = biological target: WHRN with PDZ2 deleted (mouse) (UniProt Q80VW5); test: co-IP; cotransfected HEK293 cells, starved 12 h, lysed in 50 mM Tris-HCl pH 7.4, 150 mM NaCl, 1% Triton, 1% NP-40, 2 mM EDTA; anti-Flag M2 or anti-Myc antibody-conjugated agarose, 4 °C overnight; blots against the tags
# [2] = biological target: T1, WHRN-PDZ2 domain, purified (mouse); test: SPR; BiaCore T200; WHRN-PDZ1 or WHRN-PDZ2 immobilised on a CM5 chip, peptide as analyte in serial dilutions, 120 s association and 120 s dissociation; 10 mM HEPES, 150 mM NaCl, 0.05% Surfactant P20, 0.01% DDM, 0.002% CHS, pH 7.4
# [3] = biological target: T2, WHRN-PDZ1 domain, purified; test: ITC; ITC200; purified PDZ protein 50 uM, peptide 1 mM; 20 mM Tris, 200 mM NaCl, 2 mM EDTA, pH 7.4; conditions: both partners purified
# [4] = biological target: T2, WHRN-PDZ1 domain, purified; test: SPR; BiaCore T200; WHRN-PDZ1 or WHRN-PDZ2 immobilised on a CM5 chip, peptide as analyte in serial dilutions, 120 s association and 120 s dissociation; 10 mM HEPES, 150 mM NaCl, 0.05% Surfactant P20, 0.01% DDM, 0.002% CHS, pH 7.4; conditions: both partners purified
molecule,measurement,setting,value
"ADGRV1 of the PDZ-truncation co-IP (Figure 6b,c) (from UniProt Q8VHN7 4333-6298) (receptor)",decrease of co-immunoprecipitated ADGRV1 against WT WHRN,[1],85%
"RRIPIADTHL [ADGRV1p, 10-residue C-terminal tail peptide of ADGRV1 harboring the PDZ-binding motif]",Kd,[2],61.2 µM
"EHTAFTDTHL (peptide, UniProt Q2QI47 5184-5193, looked up, also called USH2A C-terminal peptide; source: synthetic peptide) [USH2Ap, 10-residue C-terminal tail peptide of USH2A harboring the PDZ-binding motif]",Kd,[3],28.4 ± 4.2 µM
same,Kd,[4],23 ± 2.01 µM
